The values that follow come from US20250011363A1, “OPTIMIZED SHORTENED PEPTIDE THAT BINDS TO ACETYLCHOLINE RECEPTOR, AND USE THEREOF” (SKINMED CO., LTD., priority 2021, published 2025).

The test concerns the target acetylcholine receptor (Homo sapiens, UniProt P02708). The experiment in a line: SPR binding affinity (RU) of optimized 5mer/6mer/7mer peptides, Examples 6-7. Particulars: SPR, peptides at 10 μM; 6mer-2 Bottom sequence. In short, it runs like this:
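Single-concentration screen: 10 μM peptide, SPR detection, binding expressed as RU.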
Background: In SPR one partner is held on a chip, and binding of the other changes the refractive index at the surface.

Chain of acetylcholine receptor (P02708 21-457): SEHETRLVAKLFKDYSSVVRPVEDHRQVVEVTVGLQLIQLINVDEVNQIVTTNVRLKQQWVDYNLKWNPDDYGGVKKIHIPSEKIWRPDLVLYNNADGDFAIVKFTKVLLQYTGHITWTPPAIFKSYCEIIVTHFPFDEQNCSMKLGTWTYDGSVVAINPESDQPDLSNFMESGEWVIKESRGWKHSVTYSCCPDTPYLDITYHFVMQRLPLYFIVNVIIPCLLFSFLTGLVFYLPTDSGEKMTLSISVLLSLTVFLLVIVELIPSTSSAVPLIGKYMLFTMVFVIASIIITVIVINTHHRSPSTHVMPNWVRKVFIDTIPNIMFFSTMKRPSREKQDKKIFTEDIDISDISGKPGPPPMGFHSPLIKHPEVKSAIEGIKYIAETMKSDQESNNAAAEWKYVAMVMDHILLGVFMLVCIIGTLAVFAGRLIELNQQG

As to 6mer-2-1061 (KPPIKK), the Binding affinity is reported as 38 Ru.
For 6mer-2-1062 (KYNIRK), the Binding affinity was found to be 35 Ru.
In the case of 6mer-2-1063 (RFNVRK) it was 24 Ru.
Take 6mer-2-1064 (RCMKRR): the Binding affinity was 39 Ru.
In the case of 6mer-2-1065 (RIANRK) it was 27 Ru; in that of 6mer-2-1066 (KPEHKR), 29 Ru; in that of 6mer-2-1067 (RDEIRK), 29 Ru.
With 6mer-2-1068 (RIHVKK), the Binding affinity is 26 Ru.
For 6mer-2-1069 (KHDMKK) the value was 36 Ru.
For 6mer-2-1070 (RPHVRR) the value was 31 Ru; for 6mer-2-1071 (RTTWRK), 25 Ru.
For 6mer-2-1072 (KPHWKR) the value was 29 Ru; for 6mer-2-1073 (KYSWRK), 24 Ru.
As for 6mer-2-1074 (RPMGRK), the Binding affinity is given as 33 Ru.
For the substance 6mer-2-1075 (RHMERK), the Binding affinity is 31 Ru.
In the case of 6mer-2-1076 (RYCIRR), the Binding affinity is recorded as 34 Ru.
In the case of 6mer-2-1077 (KMTIKK) it was 34 Ru; in that of 6mer-2-1078 (KDTFRR), 40 Ru.
In the case of 6mer-2-1079 (KCNEKK) it was 40 Ru.
In the case of 6mer-2-1080 (RKHKKK) it was 23 Ru.
With 6mer-2-1081 (KYKMRR), the Binding affinity is 32 Ru.
For 6mer-2-1082 (KYTERR) the value was 31 Ru; for 6mer-2-1083 (KTKGKR), 39 Ru; for 6mer-2-1084 (REKPRK), 29 Ru.
In the case of 6mer-2-1085 (RPEIRK) it was 42 Ru.
For 6mer-2-1086 (KNDWRK) the value was 21 Ru; for 6mer-2-1087 (KEEMRR), 21 Ru; for 6mer-2-1088 (RPCEKK), 39 Ru.
On to 6mer-2-1089 (RKTDRR), for which the Binding affinity is recorded as 43 Ru.
As for 6mer-2-1090 (KEMHKK), the Binding affinity was 33 Ru.
For 6mer-2-1091 (RFDNKR) the value was 31 Ru; for 6mer-2-1092 (RAKFRR), 21 Ru.
In the case of 6mer-2-1093 (KTTDKK) it was 43 Ru.
For 6mer-2-1094 (KAWERK) the value was 43 Ru; for 6mer-2-1095 (KYSMRR), 39 Ru; for 6mer-2-1096 (RANVKR), 39 Ru.
6mer-2-1097 (RFWEKK): the Binding affinity is 23 Ru.
Take 6mer-2-1098 (KHPKRR): the Binding affinity is given as 28 Ru.
For 6mer-2-1099 (REDWRR) the value was 21 Ru; for 6mer-2-1100 (RTAPKK), 24 Ru.
For 6mer-2-1101 (RTKMRR), the Binding affinity came out at 38 Ru.
In the case of 6mer-2-1102 (KHKGKR) it was 32 Ru; in that of 6mer-2-1103 (RDAWRK), 42 Ru.
As to 6mer-2-1104 (RYTKKR), the Binding affinity was 38 Ru.
In the case of 6mer-2-1105 (RNNAKK) it was 28 Ru; in that of 6mer-2-1106 (KDKVKR), 28 Ru.
For 6mer-2-1107 (RAHERK) the value was 29 Ru; for 6mer-2-1108 (KKKVRR), 36 Ru.
For 6mer-2-1109 (KEDMRK), the Binding affinity amounted to 26 Ru.
In the case of 6mer-2-1110 (RMTKKK) it was 37 Ru; in that of 6mer-2-1111 (REDEKK), 23 Ru; in that of 6mer-2-1112 (RASWRK), 26 Ru.
Consider 6mer-2-1113 (KPNFRK), for which the Binding affinity worked out at 43 Ru.
